How the values were obtained:
[1] = biological target: chicken nesfatin-1/2 (nesfatin-1 and nesfatin-2 conjoined in a head-to-tail manner) (chicken (Gallus gallus)); assay: AUC; sedimentation velocity, 20 °C, 50,000 rpm, buffer B1 (20 mM Tris-HCl pH 7.5, 150 mM NaCl) with 50 µM Zn(II); gN1/2 at 0.92, 1.32, 1.85 mg/ml, gN1 (Table S1); c(s) model
[2] = biological target: chicken nesfatin-1 (chicken (Gallus gallus)); assay: as above
[3] = biological target: chicken nesfatin-1 (chicken (Gallus gallus)); assay: AUC; sedimentation velocity, 20 °C, 50,000 rpm, buffer B1 (20 mM Tris-HCl pH 7.5, 150 mM NaCl) with 500 µM ZnCl2; gN1 at 0.7, 1.0, 1.3 mg/ml; c(s) model

Substance	relative abundance of the second sedimenting species (3.43 S) at 1.85 mg/ml, 50 µM Zn(II) [1] [%]	relative abundance of the second sedimenting species (3.49 S) at 0.92 mg/ml, 50 µM Zn(II) [1] [%]	relative abundance of the second sedimenting species (3.64 S) at 1.32 mg/ml, 50 µM Zn(II) [1] [%]	stoichiometry N [1]	relative abundance of the second sedimenting species (2.16 S), 50 µM Zn(II) [2] [%]	relative abundance of the second sedimenting species (2.59 S) at 1.0 mg/ml, 500 µM Zn(II) [3] [%]	relative abundance of the second sedimenting species (2.60 S) at 0.7 mg/ml, 500 µM Zn(II) [3] [%]	relative abundance of the second sedimenting species (2.63 S) at 1.3 mg/ml, 500 µM Zn(II) [3] [%]	stoichiometry N [3]
chicken nesfatin-1/2 (nesfatin-1 and nesfatin-2 conjoined in a head-to-tail manner) (domain or fragment)	13	13	15	2					
chicken nesfatin-1 (peptide)					17	51	44	51	2
